The results in this text go back to the supplement of paper PMC7877785.

The nature of this series: self-splicing fitness, log relative to wild type (ln ratio); higher = more splicing; Tetrahymena group I intron in knt gene, E. coli kanamycin selection, DiMSum; sequences stand for … in CUCUCU…GGAGGGAAAAGUUAUCAGGCAUGCACCUGGUAGCUAGUCUUUAAACCAAUAGAUUGCAUCGGUUUAAAAGGCAAGACCGUCAAAUUGCGGGAAAGGGGUCAACAGCCGUUCAGUACCAAGUCUCAGGGGAAACUUUGAGAUGGCCUUGCAAAGGGUAUGGUAAUAAGCUGACGGACAUGGUCCUAACCACGCAGCCAAGUCCUAAGUCAACAGAUCUUCUGUUGAUAUGGAUGCAGUUCACAGACUAAAUGUCGGUCGGGGAAGAUGUAUUCUUCUCAUAAGAUAUAGUCGGACCUCUCCUUAAUGGGAGCUAGCGGAUGAAGUGAUGCAACACUGGAGCCGCUGGGAACUAAUUUGUAUGCGAAAGUAUAUUGAUUAGUUUUGGAGUACUCGUGGUCG
The method in brief:
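A randomised library covering all eight P1ex-region intron nucleotides was built with the intron in the knt kanamycin-resistance gene on pET-22b(+) and held in E. coli BL21(DE3). Cells were grown overnight at 37°C or 30°C on LB agar, with or without 25 μg/mL kanamycin, plus 100 μg/mL carbenicillin, 50 μM IPTG and 0.2% rhamnose, and pooled colonies were amplicon-sequenced on an Illumina HiSeq 2500. DiMSum fitness is the error-weighted combination of wild-type-normalised replicate fold changes, kanamycin versus none.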

± gives the uncertainty stated by the source.

GUUGAGCAAUAUUACGUAAA: the “self-splicing fitness (ln)” value is -2.7 ± 0.2 (30 °C) and -1.73 ± 0.19 (37 °C).

With GUUGAGCAAUAUUACGUAUG, the “self-splicing fitness (ln)” value is -2.76 ± 0.34 (30 °C) and -1.52 ± 0.29 (37 °C).

Take GUUGAGCAAUAUUACGUUGC: the “self-splicing fitness (ln)” value (30 °C) was -2.03 ± 0.42.

For GUUUAGCAAUAUUACGAAGG, the “self-splicing fitness (ln)” value by setting is: (30 °C) -2.93 ± 0.38; (37 °C) -1.37 ± 0.26.

Regarding GUUUAGCAAUAUUACGAAUG, the “self-splicing fitness (ln)” value was -1.2 ± 0.18 (30 °C) and -0.733 ± 0.18 (37 °C).

In the case of GUUUAGCAAUAUUACGACAA, the “self-splicing fitness (ln)” value reads like this: (30 °C) -2.09 ± 0.21; (37 °C) -0.807 ± 0.19.

Turning to GUUUAGCAAUAUUACGACGC, the “self-splicing fitness (ln)” value is 0.0175 ± 0.18 (30 °C) and -0.0772 ± 0.24 (37 °C).

As for GUUUAGCAAUAUUACGACGG, the “self-splicing fitness (ln)” value reads like this: (30 °C) -2.88 ± 0.25; (37 °C) -3.5 ± 0.47.

As for GUUUAGCAAUAUUACGAUCG, the “self-splicing fitness (ln)” value was -1.61 ± 0.13 (30 °C) and -0.512 ± 0.19 (37 °C).

Consider GUUUAGCAAUAUUACGAUGA, for which the “self-splicing fitness (ln)” value runs as follows: (30 °C) -2.41 ± 0.21; (37 °C) -1.39 ± 0.14.

Take GUUUAGCAAUAUUACGCACG: for the setting “30 °C”, the “self-splicing fitness (ln)” value was -2.48 ± 0.44.

For GUUUAGCAAUAUUACGCACU, the “self-splicing fitness (ln)” value (30 °C) is -1.41 ± 0.15 and the “self-splicing fitness (ln)” value (37 °C) was -0.128 ± 0.15.

Take GUUUAGCAAUAUUACGCCUA: the “self-splicing fitness (ln)” value was -0.696 ± 0.28 (30 °C) and -0.827 ± 0.4 (37 °C).

Consider GUUUAGCAAUAUUACGCGGA, for which the “self-splicing fitness (ln)” value is, setting by setting: (30 °C) -1.9 ± 0.24; (37 °C) -1.82 ± 0.37.

GUUUAGCAAUAUUACGGCAC: the “self-splicing fitness (ln)” value is -0.0568 ± 0.4 (30 °C) and -0.227 ± 0.43 (37 °C).

Consider GUUUAGCAAUAUUACGGGAG, for which the “self-splicing fitness (ln)” value was -1.44 ± 0.18 (30 °C) and -1.83 ± 0.2 (37 °C).

In the case of GUUUAGCAAUAUUACGGGCG, the “self-splicing fitness (ln)” value was -0.544 ± 0.2 (30 °C) and -1.38 ± 0.21 (37 °C).

GUUUAGCAAUAUUACGGUGG: under “37 °C”, the “self-splicing fitness (ln)” value was -2.33 ± 0.31.

As to GUUUAGCAAUAUUACGGUUC, the “self-splicing fitness (ln)” value runs as follows: (30 °C) -1.09 ± 0.12; (37 °C) -0.823 ± 0.15.

For the sequence GUUUAGCAAUAUUACGUAAC, the “self-splicing fitness (ln)” value (30 °C) is -2.2 ± 0.29 and the “self-splicing fitness (ln)” value (37 °C) is -1.96 ± 0.39.

For GUUUAGCAAUAUUACGUAGA, the “self-splicing fitness (ln)” value is -2.37 ± 0.15 (30 °C) and -0.622 ± 0.2 (37 °C).

On to GUUUAGCAAUAUUACGUCGU, for which the “self-splicing fitness (ln)” value was -0.72 ± 0.21 (30 °C) and -0.885 ± 0.21 (37 °C).

As to GUUUAGCAAUAUUACGUGUA, the “self-splicing fitness (ln)” value (30 °C) was -2.53 ± 0.092 and the “self-splicing fitness (ln)” value (37 °C) is -0.725 ± 0.077.

As for GUUUAGCAAUAUUACGUGUU, the “self-splicing fitness (ln)” value (30 °C) is -2.4 ± 0.13 and the “self-splicing fitness (ln)” value (37 °C) was -2.35 ± 0.14.

As to GUUUAGCAAUAUUACGUUAA, the “self-splicing fitness (ln)” value (30 °C) was -1.87 ± 0.33 and the “self-splicing fitness (ln)” value (37 °C) is -1.68 ± 0.24.

Regarding UAAAAGCAAUAUUACGAAUG, the “self-splicing fitness (ln)” value was -1.18 ± 0.067 (30 °C) and 0.0515 ± 0.081 (37 °C).

Consider UAAAAGCAAUAUUACGAAUU, for which the “self-splicing fitness (ln)” value is, setting by setting: (30 °C) -3.12 ± 0.15; (37 °C) -1.95 ± 0.18.

In the case of UAAAAGCAAUAUUACGACGC, the “self-splicing fitness (ln)” value by setting is: (30 °C) -2.67 ± 0.18; (37 °C) -0.32 ± 0.15.

In the case of UAAAAGCAAUAUUACGACGG, the “self-splicing fitness (ln)” value (30 °C) came out at 0.0981 ± 0.087 and the “self-splicing fitness (ln)” value (37 °C) was -0.342 ± 0.13.

As to UAAAAGCAAUAUUACGAGCA, the “self-splicing fitness (ln)” value by setting is: (30 °C) -0.549 ± 0.088; (37 °C) -0.276 ± 0.1.

With UAAAAGCAAUAUUACGAGGC, the “self-splicing fitness (ln)” value (30 °C) was -2.69 ± 0.34 and the “self-splicing fitness (ln)” value (37 °C) was -2.67 ± 0.36.

Take UAAAAGCAAUAUUACGAUAU: the “self-splicing fitness (ln)” value is, setting by setting: (30 °C) -2.59 ± 0.1; (37 °C) -0.953 ± 0.1.

Turning to UAAAAGCAAUAUUACGCGCG, the “self-splicing fitness (ln)” value (30 °C) was -0.577 ± 0.087 and the “self-splicing fitness (ln)” value (37 °C) was determined as 0.0302 ± 0.11.

Consider UAAAAGCAAUAUUACGCUCU, for which the “self-splicing fitness (ln)” value runs as follows: (30 °C) -1.02 ± 0.12; (37 °C) -0.11 ± 0.14.

Turning to UAAAAGCAAUAUUACGCUGU, the “self-splicing fitness (ln)” value is, setting by setting: (30 °C) -3.01 ± 0.23; (37 °C) -2.26 ± 0.2.

In the case of UAAAAGCAAUAUUACGGACG, the “self-splicing fitness (ln)” value by setting is: (30 °C) 0.221 ± 0.11; (37 °C) 0.00931 ± 0.13.

On to UAAAAGCAAUAUUACGGAGG, for which the “self-splicing fitness (ln)” value is -2.7 ± 0.17 (30 °C) and -2.07 ± 0.16 (37 °C).

Regarding UAAAAGCAAUAUUACGGGAU, the “self-splicing fitness (ln)” value is -3.01 ± 0.27 (30 °C) and -2.23 ± 0.18 (37 °C).
